{
  "source": "paper PMC5882647",
  "about": "“Simultaneous Monitoring of Cell-surface Receptor and Tumor-targeted Photodynamic Therapy via TdT-initiated Poly-G-Quadruplexes”",
  "binders": {"B1": {"name": "aptamer-primer (AP; SL1 aptamer + poly-T linker + primer) (ssDNA)", "DNA": "ATCAGGCTGGATGGTAGCTCGGTCGGGGTGGGTGGGTTGGCAAGTCTGATTTTTTTTTTTTTTTTTTAATACAACCTCTCA"}, "B2": {"name": "Lib-primer (LP) (ssDNA)", "DNA": "ATTTAGAGTGACGCAGCAGGACACGGTGGCTTAGTTTTTCAAGGCTTAGTTTTTTTTTTTTTTTTTTAATACAACCTCTCA"}},
  "molecular_target": "c-Met-Fc fusion protein (UniProt P08581 25-932)",
  "sequence (P08581 25-932)": "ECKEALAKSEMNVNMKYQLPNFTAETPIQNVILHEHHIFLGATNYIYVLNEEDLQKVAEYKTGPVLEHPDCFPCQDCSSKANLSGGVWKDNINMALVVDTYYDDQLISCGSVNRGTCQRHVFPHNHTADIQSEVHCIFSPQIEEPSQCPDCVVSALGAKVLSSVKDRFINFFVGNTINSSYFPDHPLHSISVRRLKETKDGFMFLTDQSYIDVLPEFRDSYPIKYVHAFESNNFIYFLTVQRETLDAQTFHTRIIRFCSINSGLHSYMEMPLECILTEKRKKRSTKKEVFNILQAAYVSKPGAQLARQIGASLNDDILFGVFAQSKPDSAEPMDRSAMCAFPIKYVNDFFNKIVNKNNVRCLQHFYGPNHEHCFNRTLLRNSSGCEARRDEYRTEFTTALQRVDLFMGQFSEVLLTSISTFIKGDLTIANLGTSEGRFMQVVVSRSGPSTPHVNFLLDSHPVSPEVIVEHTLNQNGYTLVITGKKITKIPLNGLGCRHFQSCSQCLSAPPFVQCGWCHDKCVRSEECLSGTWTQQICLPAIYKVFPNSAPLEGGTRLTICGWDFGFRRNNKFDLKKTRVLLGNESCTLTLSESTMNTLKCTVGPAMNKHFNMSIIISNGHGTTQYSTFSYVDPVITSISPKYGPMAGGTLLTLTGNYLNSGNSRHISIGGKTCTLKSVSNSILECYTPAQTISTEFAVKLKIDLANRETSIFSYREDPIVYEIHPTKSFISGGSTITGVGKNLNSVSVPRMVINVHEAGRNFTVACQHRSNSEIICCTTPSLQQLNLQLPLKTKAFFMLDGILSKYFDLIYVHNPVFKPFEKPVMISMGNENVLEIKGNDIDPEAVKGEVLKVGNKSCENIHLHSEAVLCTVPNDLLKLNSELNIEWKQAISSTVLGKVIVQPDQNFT",
  "assay": "EMSA; EMSA: DNA (printed 200 nmol) with c-Met-Fc or BSA (printed 200 nmol) in 10 uL DPBS, 30 min, 37 C; native 4-20% TBE gel, SYBR Green II; pH not stated",
  "settings": "protein: recombinant; tags: Fc; chain copies: 2",
  "data": [
    {"binder": "B1", "values": [
      {"measurement": "binding result", "value": "binds"}
    ]},
    {"binder": "B2", "values": [
      {"measurement": "binding result", "value": "no binding"}
    ]}
  ]
}
